For orientation: EC50 (read off the curve) means the concentration at which the effect is half-maximal. High values mean a less potent agent, low ones a more potent agent.

Assay [1] addresses T1, mouse coagulation factor XI (mouse, UniProt Q91Y47 19-624).
T1 construct: also called mouse FXI; mFXI
Put plainly: solid phase binding assay, biotinylated antibody on immobilized FXI, apparent Kd.

Assay [2] deals with T2, human coagulation factor XI (human, UniProt P03951 19-625). The description is as above.
For assay [3], the target named is human activated coagulation factor XI (FXIa) (human) (UniProt P03951). Put plainly: solid phase binding assay, biotinylated 14E11 on immobilized human FXIa.
The target of assay [4] is T1, mouse coagulation factor XI. Nature of the assay: solid phase binding assay, biotinylated 14E11 on immobilized mouse FXI.
Assay [5] concerns the target T2, human coagulation factor XI. Put plainly: cell-based or functional assay.
The target in assay [6] is T1, mouse coagulation factor XI. Nature of the assay: earlier solid phase binding assay (FIG. 2D), biotinylated 14E11 on immobilized FXI.
In assay [7] the target is T2, human coagulation factor XI. The description is as above.
The target in assay [8] is human activated coagulation factor XI (FXIa) (human) (UniProt P03951). Put plainly: earlier solid phase binding assay (FIG. 2D), biotinylated 14E11 on immobilized FXIa.
Assay [9] addresses T2, human coagulation factor XI. Put plainly: solid phase binding assay, biotinylated 14E11 on immobilized human FXI.
Assay [10] concerns the target T3, human activated coagulation factor XI (FXIa) (human, UniProt P03951 19-625).
T3 construct: also called human FXIa; hFXIa
Nature of the assay: solid phase binding assay, biotinylated antibody on immobilized FXIa, apparent Kd.
Description: Microtiter plates were coated with FXI or FXIa (2 μg/ml, 100 μL/well) in 50 mmol/L Na₂CO₃ pH 9.6 was incubated overnight at 4° C. in Immulon 2HB microtiter plates (Thermo Scientific). Wells were blocked with 150 μL phosphate buffered saline (PBS) with 2% BSA for 1 hour at room temperature. […] After washing with PBS-0.1% Tween-20 (PBS T), 100 μL streptavidin-horse-radish-peroxidase (ThermoFisher Scientific, 1:8000 dilution in FIBS) was added, and incubated at room temperature for 90 minutes. After washing with PBS-T, 100 μL substrate solution (12 mL 30 mmol/L citric acid; 100 mmol/L Na₂HPO₄, pH 5.0; and 1 o-phenylenediamine dihydrochloride tablet, 12 μL 30% H₂O₂) was added. Reactions were stopped after 10 min with 50 μL 2.5 M H₂SO₄. […] The data was analyzed by non-linear regression analysis and the apparent Kd (equilibrium dissociation constant) was calculated as the concentration of AB023 needed to achieve half-max binding at equilibrium using GraphPad Prism (v. 5.0).

“14E11, murine monoclonal anti-FXI antibody”: the Kd was 70 pM in assay [1]; 390 pM in [2]; 2 to 3 pM in assay [6]; 2 to 3 pM in assay [7]; 2 to 3 pM in [8]. Also, the EC50 (read off the curve) in assay [3], in assay [4] and in assay [9] was 3 pM throughout. The aPTT of plasma, antibody concentration at maximum inhibition in assay [5] lay in the range of 25 to 50 nM.

B1: AB023, humanized anti-FXI monoclonal antibody (variant VH3/Vκ3, clone 3G3) (antibody, V domains shown)
VH: QVQLQESGPGLVKPSETLSITCTVSGFSLTGYGIYWVRQPPGKGLEWLGMIWGDGRTDYNSALKSRVTISKDNSKSQVSLKLSSVTAADTARYYCARDYYGSKDYWGQGTTVTVSS
VL: DIQMTQSPSSLSASVGDRVTITCKASQDVSTAVAWYQQKPGKAPKLLIYLTSYRNTGVPDRFSGSGSGTDFTFTISSLQPEDIAVYYCQQHYKTPYSFGGGTKVEIKR
notes: Human IgG4 with S241P (Kabat) hinge modification, kappa light chain; also called A13023; A8023
On to B1, for which the figures for the Kd in [10], in assay [1] and in assay [2] were 1300 pM, 160 pM and 3200 pM, respectively. Besides, the “fold prolongation of aPTT of FXI deficient plasma + 10 µg/mL FXI after adding 100 µg/mL AB023” value in assay [5] was ~2 fold.

The record behind these values is patent US20220089777A1 (ARONORA, published 2022).
